The results in this text go back to US20100150950A1, “HUMAN ANTIBODIES THAT BIND CD70 AND USES THEREOF” (Medarex, Inc., priority 2006, published 2010).

One experiment deals with ARH-77 cells. As to the kind of experiment: ADCC fluorescence cytotoxicity assay, ARH-77. The format is cell-based, human. Conditions: target to effector ratio 1:50. Here is the method: In this example, anti-CD70 monoclonal antibodies were tested for the ability to kill CD70+ cell lines in the presence of effector cells via antibody dependent cellular cytotoxicity (ADCC) in a fluorescence cytotoxicity assay.
Human effector cells were prepared from whole blood as follows. Human peripheral blood mononuclear cells were purified from heparinized whole blood by standard Ficoll-paque separation. The cells were resuspended in RPMI1640 media containing 10% FBS and 200 U/ml of human IL-2 and incubated overnight at 37° C. The following day, the cells were collected and washed four times in culture media and resuspended at 2×10^7 cells/ml. […]
The CD70+ cell lines ARH-77 (human B lymphoblast leukemia; ATCC Accession No. CRL-1621), HuT 78 (human cutaneous lymphocyte lymphoma; ATCC Accession No. TIB-161), Raji (human B lymphocyte Burkitt's lymphoma; ATCC Accession No. CCL-86) and a negative control cell line L540 (human Hodgkin's lymphoma; DSMZ Deposit No. ACC 72) were tested for antibody specific ADCC to the human anti-CD70 monoclonal antibodies using the Delfia fluorescence emission analysis as follows. […]
In this example, a defucosylated and non-defucosylated anti-CD70 monoclonal antibody was tested for the ability to kill CD70+cells in the presence of effector cells via antibody dependent cellular cytotoxicity (ADCC) in a fluorescence cytotoxicity assay […]

Another experiment deals with activated human B cells. As to the kind of experiment: Binding to and ADCC of activated human B cells (51Cr). The format is cell-based. On the procedure: In this study, a HuMAb anti-CD70 antibody and the nonfucosylated form were tested for their ability to mediate ADCC effects on human B cells. Frozen human spleen cells were thawed and B cells were negatively purified by magnetic beads. Purified B cells were cultured at 2×10^6/ml in RPMI+10% FBS supplemented with NEAA, sodium pyruvate, β-ME and penicillin/streptomycin. B cells were activated by 10 μg/ml of LPS and 5 μg/ml anti-CD40 for 3 days. The cells were harvested, washed and an aliquot was stained with biotin conjugated nonfucosylated 2H5 (2H5 NF-bio)+streptavidin-APC. Human peripheral blood mononuclear effector cells were purified from heparinized whole blood by standard Ficoll-Paque separation and cultured overnight in of 50 U/ml IL-2. The activated B cells were labeled with 100 μCi of Na2 ^51CrO4 (Perkin Elmer, Wellesley, Mass.) per 1×10^6 cells for 1 hour. Effector cells were added to labeled target cells at a ratio of […] in the presence of serial dilutions of 2H5 and 2H5 NF (non-fucosylated). In addition, the test articles were assayed at 10 μg/ml in the presence of 20 μg/ml murine anti-CD 16 antibody 3G8 or mouse isotype control antibody. Following […] for 4 hours at 37° C., cells were centrifuged and the supernate was read on the Cobra II auto-gamma counter (Perkin Elmer) with a reading window of 240-400 KeV. The percent specific lysis was calculated as: (experimental release−spontaneous release)/(maximal release−spontaneous release)×100 where: (i) target cells with no effector cells and no antibody control for spontaneous release and (ii) target and effector cells in presence of 3% Lysol detergent control for maximal release. Percent specific lysis was plotted against antibody concentration and the data was analyzed by non-linear regression, sigmoidal dose response (variable slope) using GraphPad Prism™ 3.0 software (San Diego, Calif.).

Experiment [1] concerns CMV activated CD70+/CD4+ cells. The experiment can be described thus: CMV Ag stimulated human CD4+ T cell expansion. Conditions: 2 μg/ml, day 9. The format is cell-based. Here is the method: CMV positive pre-screened donors were cultured in AIM-V media supplemented with 10% heat-inactivated FCS at 1×10^6 cells/ml on 24-well culture plates and stimulated with 5.0 μg/ml of CMV lysate in the presence of 2 μg/ml of biotinylated 2H5, 2H5 NF or hIgG1nf control Abs. Cells were harvested on day 9 and the number of viable cells/ml in each culture was determined by counting an aliquot using a hemocytometer and trypan blue exclusion. The cells were washed in staining buffer and blocked with 5% human serum. Biotinylated 2H5, 2H5 NF, or hIgG1nf were added to an equal volume of cells at 20 μg/ml final concentration. Cells were incubated for 30 minutes, washed and stained with anti-CD4-FITC and PE-conjugated streptavidin. Cells were again incubated for 30 minutes, washed twice and then fixed and permeabilized using BD Cytofix/Cytoperm kit. The cells were washed twice in perm/wash buffer and intracellular stained with anti-INFγ-APC (BD Clone B27). […] Cells were analyzed by flow cytometry for CD70 surface and INFγ intracellular expression by gating on live CD4+ cells. The number of CD4+/CD70+ and CD4+/INFγ+ cells/ml in each condition were calculated by multiplying the percent CD70+ or INFγ+ cells in the CD4 gate by the percent of total CD4+ cells times the total number of viable cells/ml ((%CD70+ or INFγ+)×(%CD4+)×(total viable cells/ml)).

B1: 2H5 NF: 2H5 HuMAb lacking fucosyl residues, expressed in CHO cell line Ms704-PF (antibody, V domains shown)
VH: QVQLVESGGGVVQPGRSLRLSCAASGFTFSSYIMHWVRQAPGKGLEWVAVISYDGRNKYYADSVKGRFTISRDNSKNTLYLQMNSLRAEDTAVYYCARDTDGYDFDYWGQGTLVTVSS
VL: EIVLTQSPATLSLSPGERATLSCRASQSVSSYLAWYQQKPGQAPRLLIYDASNRATGIPARFSGSGSGTDFTLTISSLEPEDFAVYYCQQRTNWPLTFGGGTKVEIK
As for B1, in the experiment with ARH-77 cells, the “ADCC, % lysis of ARH-77” value is reported as “increased percentage of specific lysis”. The “potency relative to 2H5” value with activated human B cells (ADCC of activated human B cells) is “approximately 10 fold”. Also, in the experiment with activated human B cells (biotin conjugated 2H5 NF + streptavidin-APC, FACS), the “activated B cells bound” value is listed as roughly 60%. Moreover, the “lysis of activated human B cells (ADCC)” value in the experiment with activated human B cells (effector to target 1:100 as printed, 4 hours) is on record as “induced lysis”. Besides, in experiment [1], the “depletion of CMV activated CD70+/CD4+ cells” value is reported as 97%.
